Results as given in patent US20250177557A1, “METHODS OF PRODUCING MICROBUBBLE DRUG CONJUGATES, VIRAL GENE THERAPY MICROBUBBLE CONJUGATES AND TARGETED MICROBUBBLES” (priority 2022, published 2025).

Test system: human SHSY-5Y cells
Test: Neuroprotection of differentiated SHSY-5Y cells against parkinsonian neurotoxins (CFDA cell viability)
Type: cell-based
Conditions: pre-treatment, rhGDNF 50 ng/ml, CDNF-MDCs 25-250 ng/ml
Description: Neuroprotection was tested in the well-established neuronal model of human SHSY-5Y cells (Lopes, F. M.,. et al. (2010) Brain Res. 1337, 85-94) treated with parkinsonian neurotoxins. Human SHSY-5Y cells were grown in 24 well dishes and differentiated into neuron-like cells by treatment with 10 μM retinoic acid (RA) for 7 days (FIG. 8A).
Cell viability was quantified by the CFDA assay as described previously (Sandhu, J. K., et al. (2009) Neurobiol. Dis. 33, 405-414.).
Recombinant human GDNF at 50 ng/ml was used as a positive control.

B1: rhGDNF: Recombinant human GDNF, positive control (protein, UniProt P39905 78-211, looked up)
Glial cell line-derived …: SPDKQMAVLPRRERNRQAAAANPENSRGKGRRGQRGKNRGCVLTAIHLNVTDLGLGYETKEELIFRYCSGSCDAAETTYDKILKNLSRNRRLVSDKVGQACCRPIAFDDDLSFLDDNLVYHILRKHSAKRCGCI
Neuroprotection against thapsigargin (cell viability) (1.0 μM thapsigargin ~16 h): protected from cell death | Neuroprotection against MPP+ (cell viability) (1.0 mM MPP+ ~16 h): protected from cell death
